Laboratory results from paper doi:10.1101/2022.02.05.479199 (bioRxiv, 2022).

Biological target: Replication protein A (Saccharomyces cerevisiae RPA) (S. cerevisiae, UniProt P22336;P26754;P26755)
Assay: AUC

Chain of Replication protein A (Saccharomyces cerevisiae RPA) (P22336 whole entry, chain 1 of 3): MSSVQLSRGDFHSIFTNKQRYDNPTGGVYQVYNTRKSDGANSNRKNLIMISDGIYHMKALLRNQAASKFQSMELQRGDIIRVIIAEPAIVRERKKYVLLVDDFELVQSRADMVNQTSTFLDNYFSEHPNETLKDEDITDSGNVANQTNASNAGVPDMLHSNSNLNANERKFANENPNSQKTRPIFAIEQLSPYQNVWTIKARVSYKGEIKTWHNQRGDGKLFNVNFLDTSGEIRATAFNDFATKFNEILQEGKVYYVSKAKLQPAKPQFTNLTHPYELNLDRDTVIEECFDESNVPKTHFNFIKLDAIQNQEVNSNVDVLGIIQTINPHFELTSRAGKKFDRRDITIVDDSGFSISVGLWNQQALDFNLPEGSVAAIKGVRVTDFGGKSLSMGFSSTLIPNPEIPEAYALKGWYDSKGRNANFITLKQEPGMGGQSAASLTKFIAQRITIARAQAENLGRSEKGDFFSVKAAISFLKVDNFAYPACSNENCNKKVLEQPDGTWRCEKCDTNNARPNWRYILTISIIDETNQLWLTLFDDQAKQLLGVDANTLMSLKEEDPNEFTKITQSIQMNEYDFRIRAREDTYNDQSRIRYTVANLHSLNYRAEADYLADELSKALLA
Chain of Replication protein A (Saccharomyces cerevisiae RPA) (P26754 whole entry, chain 2 of 3): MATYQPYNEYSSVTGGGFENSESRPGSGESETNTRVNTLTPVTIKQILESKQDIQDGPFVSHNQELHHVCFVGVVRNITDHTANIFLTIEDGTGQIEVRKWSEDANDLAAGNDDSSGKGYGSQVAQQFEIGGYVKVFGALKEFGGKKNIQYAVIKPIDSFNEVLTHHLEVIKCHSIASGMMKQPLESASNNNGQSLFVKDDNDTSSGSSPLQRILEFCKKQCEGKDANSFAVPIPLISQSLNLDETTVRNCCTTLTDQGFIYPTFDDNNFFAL
Chain of Replication protein A (Saccharomyces cerevisiae RPA) (P26755 whole entry, chain 3 of 3): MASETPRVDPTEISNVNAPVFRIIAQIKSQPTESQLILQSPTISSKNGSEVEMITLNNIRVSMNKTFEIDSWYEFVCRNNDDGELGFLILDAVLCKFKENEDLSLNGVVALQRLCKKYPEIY

B1: Rtt105^Cy5 (natural protein)
chain: MYSNHNLNSDDCSFDWNEEKAAELQRTGVSFDRSLTPQSLRTSTRRLSEENKQQSGTMHIDTSPSVVSDIISSRRDRSQDFFGPHSSSPIAPSERQRADQRSRLESMRLTRRRDKMTKVRGGLEKMEEMIMQGEHLREMQRLKQEAQKNALPSDMAEYMEWQNNEDLEDDELLAFIEKQETYKNELEHFLNNANKNVYENNSYPNSHT
modifications: Cy5 (maleimide) on Cys-12
  binding result: binds
